{"source": "patent US20190314260A1", "about": "“ENGINEERED TREATMENTS FOR HAIR REPAIR AND LONG-LASTING COLOR RETENTION” (Massachusetts Institute of Technology, priority 2018, published 2019)", "molecules": {"B1": {"name": "KBP: engineered keratin-binding protein without tyrosine residues; keratin-binding domain SEQ ID NO: 1 repeated three times, expressed in E. coli (protein)", "chain": "MAKTHHHHHHQGQVQHLQAAFSQYKKVELFPKGGQGQVQHLQAAFSQYKKVELFPKGGQGQVQHLQAAFSQYKKVELFPKGGYYYYC"}, "B2": {"name": "KBPY: keratin-binding protein with tyrosine residues, SEQ ID NO: 2: MAKT-6His-three keratin-binding domain repeats-YYYYC (protein)", "chain": "B1 chain"}}, "key": {"[1]": {"system": "exposed keratin proteins on damaged hair", "experiment": "keratin binding domain absorption test (FITC-conjugated peptides, fluorescence microscopy), damaged hair", "conditions": "FITC conjugate, 37° C. for 1 hr, hair washed 10 times", "description": "(§1) The peptide-FITC conjugate is not seen on healthy hair because the hydrophobic surface of healthy hair cuticles prevents binding of the peptide. However, peptide-FITC conjugates are shown to be absorbed in damaged hair because the peptide bonds to exposed keratin proteins on damaged hair shafts. […] This is due to binding of the C-terminal cysteine present on Peptide 2 to the exposed keratin protein on the damaged hair.\nTo provide damaged hair for treatment using the exemplary engineered keratin-binding construct, hair was incubated with 10% H2O2(v/v) in 0.1M Na2CO3/NaHCO3 (pH 9.0) buffer at 50° C. for 1 hr, and then the hairs were washed in deionized (DI) water.\n(§2) Samples of healthy and damaged hair were incubated with the FITC-conjugated peptides at 37° C. for 1 hr, followed by washing the hair 10 times (FIG. 5). The results are provided in the images obtained by fluorescent microscopy shown in the right part of FIG. 5."}, "[2]": {"experiment": "keratin binding domain absorption test (FITC-conjugated peptides, fluorescence microscopy), healthy hair", "conditions": "FITC conjugate, 37° C. for 1 hr, hair washed 10 times", "protocol": "as §1, §2"}, "IL-6 in fibroblast cells": {"system": "IL-6 in fibroblast cells", "experiment": "IL-6 ELISA (immune response)", "type": "cell-based", "conditions": "LPS positive control", "protocol": "(§3) Keratin-binding protein (B22) was tested for immune response by performing an IL-6 ELISA and IFN-γ ELISA. The effects of KBP and KBP-lipid conjugate on the immune response was assessed by measuring levels of IL-6 and IFN-γ in fibroblast cells. No protein was added to the cells as a negative control. Lipopolysaccharides (LPS) were used as a positive control."}, "[3]": {"experiment": "solubility test in oil-based solvents", "type": "physicochemical", "conditions": "2.5 mg protein/10 mL solvent", "protocol": "Solubility tests were performed by adding keratin-binding protein to 7 different solvents at concentrations of 2.5 mg protein/10 mL solvent. […] KBP was soluble in polysorbate 40 (Tween® 40) and Solubilisant CLR, with only a few visible particles present in solution."}, "damaged hair": {"system": "damaged hair", "experiment": "affinity of keratin binding protein tagged with a fluorescent dye for damaged and undamaged hair (fluorescence microscopy)", "protocol": "Keratin binding protein tagged with a fluorescent dye was incubated with damaged and undamaged (virgin) hair, and observed by fluorescence microscopy. The results are depicted in FIG. 8, with microscopy images shown on the left and intensity of corrected fluorescence shown on the right. Corrected fluorescence=Integrated Density−(selected area X Mean fluorescence of background).\nThe damaged hair incubated with keratin binding protein tagged with a fluorescent dye for varying amounts of time was then subjected to washing with shampoo."}, "[4]": {"system": "IFN-γ in fibroblast cells", "experiment": "IFN-γ ELISA (immune response)", "type": "cell-based", "conditions": "LPS positive control", "protocol": "as §3"}, "NIH3T3 fibroblast cell": {"system": "NIH3T3 fibroblast cell", "experiment": "MTT assay, NIH3T3 fibroblast cell viability", "type": "cell-based", "conditions": "in the presence of the protein"}}, "note": "No end group written: not given here."}
{"molecule": "Peptide 2: same keratin binding domain as peptide 1 plus a C-terminal cysteine, AKTKKVELFPKC; SEQ ID NO: 5", "values": [{"measurement": "affinity to damaged hair compared to Peptide 1", "setting": "[1]", "result": "higher affinity"}, {"measurement": "binding affinity to the damaged hair", "setting": "[1]", "result": "strong binding affinity"}]}
{"molecule": "peptide1-FITC: Peptide1 (AKTKKVELFPK) conjugated to fluorescein isothiocyanate (FITC) (also: FITC conjugate, site not given here)", "values": [{"measurement": "binding to healthy hair", "setting": "[2]", "result": "Neither peptide1-FITC nor peptide1-FITC is shown as binding"}]}
{"molecule": "B1", "values": [{"measurement": "production of IL-6", "setting": "IL-6 in fibroblast cells", "result": "No production"}, {"measurement": "solubility in butylene glycol", "setting": "[3]", "result": "not soluble"}, {"measurement": "solubility in glycerin", "setting": "[3]", "result": "not soluble"}, {"measurement": "solubility in hexylene glycol", "setting": "[3]", "result": "not soluble"}, {"measurement": "solubility in polysorbate 20 (Tween® 20)", "setting": "[3]", "result": "not soluble"}, {"measurement": "solubility in Solubilisant CLR", "setting": "[3]; only a few visible particles", "result": "soluble"}, {"measurement": "solubility in polysorbate 40 (Tween® 40)", "setting": "[3]; only a few visible particles", "result": "soluble"}, {"measurement": "binding to damaged hair versus healthy hair", "setting": "damaged hair", "result": "binds more readily to damaged hair"}, {"measurement": "production of IFN-γ", "setting": "[4]", "result": "No production"}, {"measurement": "NIH3T3 fibroblast cell viability", "setting": "NIH3T3 fibroblast cell", "result": "increased"}]}
{"molecule": "B2", "values": [{"measurement": "NIH3T3 fibroblast cell viability", "setting": "NIH3T3 fibroblast cell", "result": "increased"}]}
